Blank lines part the entries; values can stand above or below the molecule they belong to.
Tests used:
[1] = biological target: T1, SpaR (Sphingomonas paucimobilis rhodopsin) (Sphingomonas paucimobilis, UniProt A0A411LJN5); experiment: X-ray crystallography, in meso crystals, […] A; assay type: binding; settings: covalent Schiff base to K211; crystals at pH 5.2
T1 construct: gene HKX06_19670; E. coli C41(DE3) codon-optimised gene in pET32b (NdeI/XhoI), C-terminal His tag, DDM-solubilised, Ni-NTA and SEC; trimer
T1 sequence (A0A411LJN5 1-237): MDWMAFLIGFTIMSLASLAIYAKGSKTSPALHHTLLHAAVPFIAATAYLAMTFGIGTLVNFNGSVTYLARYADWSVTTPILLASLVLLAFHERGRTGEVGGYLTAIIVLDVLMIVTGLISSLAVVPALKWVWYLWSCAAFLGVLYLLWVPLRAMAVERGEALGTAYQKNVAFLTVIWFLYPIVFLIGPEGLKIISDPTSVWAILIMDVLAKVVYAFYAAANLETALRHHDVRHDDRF

[2] = biological target: Sphingomonas paucimobilis rhodopsin (SpaR) (Sphingomonas paucimobilis); experiment: crystal structure; in meso (monoolein) crystals, 0.78 M NaH2PO4/K2HPO4 pH 5.2, 22 °C; space group C2; 2.8 Å
[3] = biological target: Sphingomonas paucimobilis rhodopsin (SpaR) (Sphingomonas paucimobilis); experiment: SEC; DDM-solubilized SpaR at five pH values (4.4, 5.4, 6.4, 7.4, 8.4); at pH 4.4 only a single trimer peak, further peaks of higher molecular weight with increasing pH
[4] = biological target: Sphingomonas paucimobilis rhodopsin (SpaR) (Sphingomonas paucimobilis); experiment: SAXS; solubilized SpaR ~5 mg/ml in 100 mM NaCl, 0.5 mM EDTA, 0.01% NaN3, 20 mM TRIS(HCl) pH 7.2, 0.05% DDM; profile 0.04-0.26 1/A fitted with MEMPROT (detergent corona), trimer against monomer model
[5] = biological target: Asp97 (UniProt position 97, …); settings: cited from earlier work
Asp73 (position 73, …) = experiment: UV-vis; settings: 150 mM NaCl, 50 mM MES, Dark (ground) state, DDM-solubilised

Molecule: CC1=C(/C=C/C(C)=C/C=C/C(C)=C/C=O)C(C)(C)CCC1 [retinal]
X-ray crystallography, in meso crystals, 2.8 A [1]: the retinal co-factor is covalently bound to the K211 residue of the helix G

stoichiometry N [2]: 3
stoichiometry N [3]: 3
stoichiometry N [4]: 3
Molecule: Sphingomonas paucimobilis rhodopsin (SpaR) (natural protein)

B1: Green proteorhodopsin (PR) (uncultured marine gamma proteobacterium (printed as 'Gamma-proteobacterium')) (protein)
chain: MKLLLILGSVIALPTFAAGGGDLDASDYTGVSFWLVTAALLASTVFFFVERDRVSAKWKTSLTVSGLVTGIAFWHYMYMRGVWIETGDSPTVFRYIDWLLTVPLLICEFYLILAAATNVAGSLFKKLLVGSLVMLVFGYMGEAGIMAAWPAFIIGCLAWVYMIYELWAGEGKSACNTASPAVQSAYNTMMYIIIFGWAIYPVGYFTGYLMGDGGSALNLNLIYNLADFVNKILFGLIIWNVAVKESSNA
pKa [5]: 7.68

B2: SpaR (Sphingomonas paucimobilis rhodopsin, mirror proteorhodopsin) (Sphingomonas paucimobilis) (protein)
chain: T1 sequence (A0A411LJN5 1-237)
pKa (Asp73 (position 73, …); 5 mM ZnCl2, in the presence of 5 mM Zn2+): 0.98±0.01
pKa (Asp73 (position 73, …); no Zn2+): 1.03±0.01

From paper PMC10154332, “Mirror proteorhodopsins” (Communications Chemistry, 2023)
